From publication PMC5748972 (The Journal of Cell Biology, 2018) come the findings set out here.

The target of assay [1] is FITC-conjugated 4-((N′-2-methylphenyl)ureido)-phenylacetyl-L-leucyl-L-aspartyl-L-valyl-L-prolyl-L-al. Nature of the assay: fluorescence polarisation.
The next assay has as its target intact α4β1 on KA4 cells (Homo sapiens, UniProt P05556+P13612). In words: Fluorescent flow cytometry saturation binding of FITC-LDVP, KA4. As to conditions: basal. In general terms: A flow cytometer gives signals particle by particle.
The next assay deals with integrin α4β1 (Homo sapiens, UniProt P05556+P13612). In words: Summary statements across α4β1 preparations and cell types. The assay is classed as binding. To be noted: Jurkat, Thp1, KA4 cell surface.
Assay [2] addresses intact α4β1 on Jurkat cells (Homo sapiens, UniProt P05556+P13612). Nature of the assay: Fluorescent flow cytometry saturation binding of FITC-LDVP, Jurkat. To be noted: basal.
In assay [3] the target is intact α4β1 on Thp1 cells (Homo sapiens, UniProt P05556+P13612). In words: Fluorescent flow cytometry saturation binding of FITC-LDVP, Thp1. As to conditions: basal.
Assay [4] addresses intact integrin α4β1 on the surface of Jurkat cells (human (endogenous in Jurkat)) (UniProt P13612). In words: flow cytometry on cells.
Assay [5] has as its target intact integrin α4β1 on the surface of Jurkat cells (human (endogenous in Jurkat), UniProt P13612;P05556). Nature of the assay: flow cytometry on cells.

Broadly, the Kd is a measure of binding affinity in units of concentration. Higher therefore signals lower affinity. With “integrin α4β1 headpiece with high-mannose N-glycans (from UniProt P05556 21-501) (complex)”, in assay [1], the Kd turned out to be 0.0052 µM.

As to “α4β1: integrin α4β1; intact receptor on the cell surface”, the figures for the “P^EO” value (with intact α4β1 on KA4 cells; in assay [2]; in assay [3]) were 1.4 ± 0.3%, 1.1 ± 0.2% and 0.4 ± 0.1%, respectively. Also, the “free energy of the BC state, range on three cell types” value with integrin α4β1 was -3.2 to -2.5 kcal/mol. As to “human MAdCAM D1D2 (mucosal addressin cell adhesion molecule, domains 1 and 2) (domain or fragment)”, in assay [4], the Kd stood at 13.9 µM.

B1: alternatively spliced connecting segment III of human fibronectin (domain or fragment)
chain: DELPQLVTLPHPNLHGPEILDVPSTVQKTPFVTHPGYDTGNGIQLPGTSGQQPSVGQQMIFEEHGFRRTTPPTTATPIRHRPRPYPPNVGEEIQIGHIPREDVDYHLYPHG
In the case of B1, the Kd in assay [5] stood at 1 ± 0.19 µM.
